In assay [1] the target is T1, CD64 (FcγRI) (UniProt P12314 16-288, limits assumed).
T1 construct: Soluble Fc receptor used in solution; source and construct not described
The experiment in a line: solution affinity SPR: antibody titrated into CD64, inhibition of CD64 binding to immobilized IgG1 MAb; average of two titrations.

The target of assay [2] is T1, CD64 (FcγRI). The experiment in a line: solution affinity SPR: inhibition of CD64 binding to immobilized IgG1 MAb.
In the next assay the target is T2, CD16 (FcγRIIIa V158) (UniProt P08637 17-208, limits assumed).
T2 construct: V158 allotype as printed; source and construct not described; also called Fc gamma III receptor
Briefly: solution affinity SPR: antibody titrated into CD16, inhibition of CD16 binding to immobilized IgG1 MAb; average of two titrations.

T1 sequence (P12314 16-288 limits assumed): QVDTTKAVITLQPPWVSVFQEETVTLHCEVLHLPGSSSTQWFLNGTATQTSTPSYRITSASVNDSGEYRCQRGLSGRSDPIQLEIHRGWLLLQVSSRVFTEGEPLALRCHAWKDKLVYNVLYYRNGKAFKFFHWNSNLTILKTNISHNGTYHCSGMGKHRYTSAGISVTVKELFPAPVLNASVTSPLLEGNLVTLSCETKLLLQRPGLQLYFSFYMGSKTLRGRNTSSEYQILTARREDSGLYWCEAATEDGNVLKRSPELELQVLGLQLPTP
T2 sequence (P08637 17-208 F176V limits assumed): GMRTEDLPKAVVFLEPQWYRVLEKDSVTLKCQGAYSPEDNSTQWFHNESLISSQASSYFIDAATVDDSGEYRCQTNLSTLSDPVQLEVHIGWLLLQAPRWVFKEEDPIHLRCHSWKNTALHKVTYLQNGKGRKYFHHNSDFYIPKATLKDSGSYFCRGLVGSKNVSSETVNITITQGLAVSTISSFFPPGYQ

B1: pEAG2300 (hu5c8, IgG4 chimeric hinge + IgG1 CH3, glycosylated) (antibody)
chain 1: QVQLVQSGAEVVKPGASVKLSCKASGYIFTSYYMYWVKQAPGQGLEWIGEINPSNGDTNFNEKFKSKATLTVDKSASTAYMELSSLRSEDTAVYYCTRSDGRNDMDSWGQGTLVTVSSASTKGPSVFPLAPCSRSTSESTAALGCLVKDYFPEPVTVSWNSGALTSGVHTFPAVLQSSGLYSLSSVVTVPSSSLGTKTYTCNVDHKPSNTKVDKRVESKYGPPCPPCPAPPVAGPSVFLFPPKPKDTLMISRTPEVTCVVVDVSQEDPEVQFNWYVDGVEVHNAKTKPREEQFNSTYRVVSVLTVLHQDWLNGKEYKCKVSNKGLPSSIEKTISKAKGQPREPQVYTLPPSRDELTKNQVSLTCLVKGFYPSDIAVEWESNGQPENNYKTTPPVLDSDGSFFLYSKLTVDKSRWQQGNVFSCSVMHEALHNHYTQKSLSLSPG
chain 2: DIVLTQSPATLSVSPGERATISCRASQRVSSSTYSYMHWYQQKPGQPPKLLIKYASNLESGVPARFSGSGSGTDFTLTISSVEPEDFATYYCQHSWEIPPTFGGGTKLEIKRTVAAPSVFIFPPSDEQLKSGTASVVCLLNNFYPREAKVQWKVDNALQSGNSQESVTEQDSKDSTYSLSSTLTLSKADYEKHKVYACEVTHQGLSSPVTKSFNRGEC
In the case of B1, in the assay with CD64 (FcγRI) [1], the IC50 – broadly, the midpoint of a concentration-inhibition curve – was 3020 µM.

B2: EC300 (hu5c8 IgG4.P S228P, T307P, glycosylated) (antibody)
chain 1: not shown
chain 2: B1 chain 2
For the molecule B2, the IC50 in the assay with CD64 (FcγRI) [2] is about 8 µM; in the assay with CD16 (FcγRIIIa V158) it was 564 µM; in the assay with CD64 (FcγRI) [1], 11.2 µM.

B3: IgG4.P T299A (hu5c8 aglycosylated IgG4.P S228P, T299A) (antibody)
chain 1: not shown
chain 2: B1 chain 2
In the case of B3, the IC50 with CD64 (FcγRI) [1] came out at 739 µM.
